We go through one molecule from publication PMC12501420, “Small DUF1127 proteins regulate bacterial phosphate metabolism through protein–protein interactions with the sensor kinase PhoR” (microLife, 2025).

For this experiment, the target named is T1, Strep-PhoR, sensor kinase PhoR from E. coli, purified (E. coli, UniProt P08400 1-431).
T1 construct: sensor kinase PhoR of Escherichia coli; one of 'both Strep-PhoR proteins' of the methods; also called E. coli PhoR; source: E. coli BL21, purified (membranes solubilised with Triton X-100, Strep-Tactin)
T1 sequence (looked up): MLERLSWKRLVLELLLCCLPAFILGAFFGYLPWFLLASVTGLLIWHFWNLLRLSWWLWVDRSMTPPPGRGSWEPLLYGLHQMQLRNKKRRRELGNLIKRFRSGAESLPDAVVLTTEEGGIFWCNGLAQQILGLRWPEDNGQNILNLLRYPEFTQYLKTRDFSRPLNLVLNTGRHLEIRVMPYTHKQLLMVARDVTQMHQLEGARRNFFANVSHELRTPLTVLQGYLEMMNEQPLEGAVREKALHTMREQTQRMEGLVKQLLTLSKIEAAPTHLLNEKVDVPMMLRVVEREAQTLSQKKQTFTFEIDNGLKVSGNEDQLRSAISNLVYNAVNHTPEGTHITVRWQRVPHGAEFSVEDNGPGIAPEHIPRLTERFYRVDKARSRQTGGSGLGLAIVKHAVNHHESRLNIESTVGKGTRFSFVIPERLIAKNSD
Nature of the experiment: far-Western, overlay or dot blot; Far-Western dot blot: Strep-tagged bait proteins spotted on a nitrocellulose membrane, incubated with His-SUMO-tagged DUF1127 protein, detected with anti-His antibody; EveryBlot blocking buffer, PBST washes (for E. coli PhoR and YjiS, Fig. 8B, it is not told who was spotted). The following applies: both partners purified.

B1: YjiS from E. coli, purified (natural protein, UniProt P39390 1-54, looked up)
chain: MEFHENRAKAPFIGLVQLWQAVRRWRRQMQTRRVLQQMSDERLKDIGLRREDVE
notes: YjiS, the sole DUF1127 protein of Escherichia coli, a 54-amino acid protein; also called E. coli YjiS
Turning to B1, the binding result was “binds”.
